Here are results for ten molecules from US11365264B2, “Therapeutic methods and compositions” (INSTITUT PASTEUR, priority 2013, dated 2022).

For data set [1], the system named is purified HD CD4 T cells. The format is cell-based, human.
Data set [2] deals with purified HD CD4 T cells. Description: Inhibition of IL-7-induced STAT5 phosphorylation and nuclear translocation. Format: cell-based, human. The conditions noted are these: for effect on IL-7 induced nuclear translocation of phosphoSTAT5 (NT pSTAT5): CD4 T cells, IL-7 stimulation. How it is done:
CD4 T-cells were purified by negative selection as already described (10) then activated with 2 nM recombinant glycosylated human IL-7 (Cytheris) or 40 μg PHA (Sigma). The confocal and STED microscopy used to study cell surface microdomains (MMD) and phospho-STAT5 cellular compartment distribution has already been described (10, 12). FCS analysis of protein diffusion at the surface of living cells has also been described (10, 12
Cells were then plated on polylysine-coated glass slides for 10 min then activated by 15 min IL-7 (2 nM) or not for control (NS), then fixed by PFA (PFA, 1.5%, 15 min at 37° C. followed by 15 min at room temperature) and permeabilization by methanol (90% at −20° C.). Cells were equilibrated one hour in PBS/SVF 5% then phospho-STAT5 was then stained by rabbit anti-STAT5 labelled with goat anti-rabbit-Atto642 and analyzed by FACS or STED microscopy.
VP plasma containing PLA2sGIB was first incubated with purified HD CD4 T cells (20 min) before stimulation by IL-7 (2 nM, 15 min.). Cells were then plated on polylysine coated glass slides before fixation by PFA (1.5%) and permeabilization by methanol (90% at −20° C.). pSTAT5 was then stained by rabbit anti-STAT5 labelled with goat anti-rabbit-Atto642 and analyzed by FACS or pulsed STED microscopy.

The nature of data set [3]: Enz Check PLA2 enzymatic assay. The conditions noted are these: for enzymatic activity (in words): recombinant PLA2 proteins produced in E. coli; for enzymatic activity of mutant vs recombinant porcine PLA2 GIB: each protein at 200 microM, FIG. 12.
Description: The assay was performed with the Enz Check PLA2 assay kit from Life Technologies (ref.: E102147). […] The PLA2 activity is followed by the intensity increase of a single wavelength at 515 nm. PLA2 is detected by changes in the emission intensity ratio at 515/575 nm with excitation at 460 nm. Specific activities are expressed in amount of fluorescent substrate (U) obtained per second and per μg of enzyme in solution.
Each protein was used at 200 microM.
Data set [4] concerns the target T1, human GIBsPLA2 (Homo sapiens, UniProt P04054).
T1 construct: from tissue
Description: Inhibitor test: inhibition of IL-7-induced pSTAT5 nuclear translocation by viremic plasma or PLA2 GIB. The format is cell-based. The conditions noted are these: 100 nM inhibitor, human PLA2G1B, FIG. 16.

T1 sequence (P04054 23-148): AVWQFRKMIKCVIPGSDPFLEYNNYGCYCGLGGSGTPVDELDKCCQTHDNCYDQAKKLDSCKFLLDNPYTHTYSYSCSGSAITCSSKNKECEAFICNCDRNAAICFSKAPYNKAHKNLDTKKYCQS

Consider “commercial purified porcine GIBsPLA2: commercial purified porcine GIBsPLA2”, for which the “induction of abnormal membrane microdomains (aMMD)” value in data set [1] is given as “induces abnormal MDM”. Further, the “effect on IL-7 induced nuclear translocation of phosphoSTAT5 (NT pSTAT5)” value in data set [2] is listed as “block IL-7 pSTAT5 nuclear translocation”.
For the molecule “hPLA2 IB: recombinant human PLA2 IB (in E. coli)”, in data set [3], the Specific activity is given as 10694.57 U/ug/s and the “enzymatic activity (in words)” value is recorded as “potent enzymatic activity”.
Turning to “hPLA2 IID: recombinant human PLA2 IID (E. coli)”, in data set [3], the Specific activity is reported as 445.21 U/ug/s and the “enzymatic activity (in words)” value is “not active”.
For the molecule “mutant H48Q: porcine PLA2 GIB mutant, histidine at position 48 replaced by glutamine, produced in E. coli”, the “induction of abnormal membrane microdomains (aMMD)” value in data set [1] is on record as “lost the ability”. For the same molecule, the “enzymatic activity of mutant vs recombinant porcine PLA2 GIB” value in data set [3] is listed as “lost all of its enzymatic activity”; in data set [3] (listed as pPLA2GIB H48Q), “Absence of activity”. In addition, in data set [2], the “effect on IL-7 induced nuclear translocation of phosphoSTAT5 (NT pSTAT5)” value is “lost the ability”.
In the case of “pPLA2 IB: recombinant porcine PLA2 IB (in E. coli)”, the Specific activity in data set [3] is on record as 10353.57 U/ug/s.
As for “ppPLA2 IB: Purified porcine pancreas PLA2 IB”, in data set [3], the Specific activity was 7694.31 U/ug/s.

B1: hPLA2 IIA: recombinant human PLA2 IIA (in E. coli) (protein, UniProt P14555 21-144, looked up)
Phospholipase A2, membrane …: NLVNFHRMIKLTTGKEAALSYGFYGCHCGVGGRGSPKDATDRCCVTHDCCYKRLEKRGCGTKFLSYKFSNSGSRITCAKQDSCRSQLCECDKAAATCFARNKTTYNKKYQYYSNKHCRGSTPRC
Consider B1, for which, in data set [3], the Specific activity came to 214.93 U/ug/s and the “enzymatic activity (in words)” value is listed as “not active”.

B2: IL-7: recombinant glycosylated human IL-7 (Cytheris) (protein, UniProt P13232 26-177, looked up)
Interleukin-7: DCDIEGKDGKQYESVLMVSIDQLLDSMKEIGSNCLNNEFNFFKRHICDANKEGMFLFRAARKLRQFLKMNSTGDFDLHLLKVSEGTTILLNCTGQVKGRKPAALGEAQPTKSLEENKSLKEQKKLNDLCFLKRLLQEIKTCWNKILMGTKEH
modifications: glycosylated
As for B2, in data set [1], the MMD size stood at 90 nm and the “number of MMD per CD4 T cell” value is recorded as 300 MMD/cell. For the same molecule, the “phospho-STAT5 found in the nucleus” value in data set [2] (HD CD4 T cells, five minutes following IL-7 stimulation) turned out to be 50%.

B3: hPLA2 X: recombinant human PLA2 X (in E. coli) (protein, UniProt O15496 43-165, looked up)
Group 10 secretory …: GILELAGTVGCVGPRTPIAYMKYGCFCGLGGHGQPRDAIDWCCHGHDCCYTRAEEAGCSPKTERYSWQCVNQSVLCGPAENKCQELLCKCDQEIANCLAQTEYNLKYLFYPQFLCEPDSPKCD
For the molecule B3, in data set [3], the Specific activity came to 3318.97 U/ug/s and the “enzymatic activity (in words)” value is “very limited activity”.

B4: recombinant PLA2 soluble receptor: soluble murine receptor specific for PLA2 GIB, SEQ ID NO: 22 (protein)
chain: MVQWLAMLQLLWLQQLLLLGIHQGIAQDLTHIQEPSLEWRDKGIFIIQSESLKTCIQAGKSVLTLENCKQPNEHMLWKWVSDDHLFNVGGSGCLGLNISALEQPLKLYECDSTLISLRWHCDRKMIEGPLQYKVQVKSDNTVVARKQIHRWIAYTSSGGDICEHPSRDLYTLKGNAHGMPCVFPFQFKGHWHHDCIREGQKEHLLWCATTSRYEEDEKWGFCPDPTSMKVFCDATWQRNGSSRICYQFNLLSSLSWNQAHSSCLMQGGALLSIADEDEEDFIRKHLSKVVKEVWIGLNQLDEKAGWQWSDGTPLSYLNWSQEITPGPFVEHHCGTLEVVSAAWRSRDCESTLPYICKRDLNHTAQGILEKDSWKYHATHCDPDWTPFNRKCYKLKKDRKSWLGALHSCQSNDSVLMDVASLAEVEFLVSLLRDENASETWIGLSSNKIPVSFEWSSGSSVIFTNWYPLEPRILPNRRQLCVSAEESDGRWKVKDCKERLFYICKKAGQVPADEQSGCPAGWERHGRFCYKIDTVLRSFEEASSGYYCSPALLTITSRFEQAFITSLISSVAEKDSYFWIALQDQNNTGEYTWKTVGQREPVQYTYWNTRQPSNRGGCVVVRGGSSLGRWEVKDCSDFKAMSLCKTPVKIWEKTELEERWPFHPCYMDWESATGLASCFKVFHSEKVLMKRSWREAEAFCEEFGAHLASFAHIEEENFVNELLHSKFNWTQERQFWIGFNRRNPLNAGSWAWSDGSPVVSSFLDNAYFEEDAKNCAVYKANKTLLPSNCASKHEWICRIPRDVRPKFPDWYQYDAPWLFYQNAEYLFHTHPAEWATFEFVCGWLRSDFLTIYSAQEQEFIHSKIKGLTKYGVKWWIGLEEGGARDQIQWSNGSPVIFQNWDKGREERVDSQRKRCVFISSITGLWGTENCSVPLPSICKRVKIWVIEKEKPPTQPGTCPKGWLYFNYKCFLVTIPKDPRELKTWTGAQEFCVAKGGTLVSIKSELEQAFITMNLFGQTTNVWIGLQSTNHEKWVNGKPLVYSNWSPSDIINIPSYNTTEFQKHIPLCALMSSNPNFHFTGKWYFDDCGKEGYGFVCEKMQDTLEHHVNVSDTSAIPSTLEYGNRTYKIIRGNMTWYAAGKSCRMHRAELASIPDAFHQAFLTVLLSRLGHTHWIGLSTTDNGQTFDWSDGTKSPFTYWKDEESAFLGDCAFADTNGRWHSTACESFLQGAICHVVTETKAFEHPGLCSETSVPWIKFKGNCYSFSTVLDSRSFEDAHEFCKSEGSNLLAIRDAAENSFLLEELLAFGSSVQMVWLNAQFDNNNKTLRWFDGTPTEQSNWGLRKPDMDHLKPHPCVVLRIPEGIWHFTPCEDKKGFICKMEAGIPAVTAQPEKGLSHSIVPVTVTLTLIIALGIFMLCFWIYKQKSDIFQRLTGSRGSYYPTLNFSTAHLEENILISDLEKNTNDEEVRDAPATESKRGHKGRPICISP
modifications: soluble receptor
As for B4, the “effect on activity of PLA2sGIB on NT of pSTAT5” value in data set [4] is “significantly block the negative effect of PLA2sGIB on the NT of pSTAT5”; in data set [4] (listed as sMR) it was “inhibits the activity of human PLA2G1B”.
